Measurements: publication PMC13419597, “An Acetylation-Primed SUMOylation Switch Controls RORβ Stability through a p300-SIRT1 Regulatory Axis” (Research Square, 2024)

Molecular target: T1, His-HA-RORβ (isoform 1) (human, UniProt Q92753-1 1-459)
T1 construct: Retinoic acid receptor-related orphan receptor beta (RORβ), human, isoform 1 (RORβ1); the printed residue numbers (K11 to K459 at the C-terminus of the LBD) fit the 459-residue form; Same plasmid used in TC28a2 (RIME) and HEK293T (co-IP, IP-MS); also called HA-tagged RORβ; RORβ WT; source: TC28a2 or HEK293T, transiently transfected (pCMV6), in lysate
T1 sequence (looked up): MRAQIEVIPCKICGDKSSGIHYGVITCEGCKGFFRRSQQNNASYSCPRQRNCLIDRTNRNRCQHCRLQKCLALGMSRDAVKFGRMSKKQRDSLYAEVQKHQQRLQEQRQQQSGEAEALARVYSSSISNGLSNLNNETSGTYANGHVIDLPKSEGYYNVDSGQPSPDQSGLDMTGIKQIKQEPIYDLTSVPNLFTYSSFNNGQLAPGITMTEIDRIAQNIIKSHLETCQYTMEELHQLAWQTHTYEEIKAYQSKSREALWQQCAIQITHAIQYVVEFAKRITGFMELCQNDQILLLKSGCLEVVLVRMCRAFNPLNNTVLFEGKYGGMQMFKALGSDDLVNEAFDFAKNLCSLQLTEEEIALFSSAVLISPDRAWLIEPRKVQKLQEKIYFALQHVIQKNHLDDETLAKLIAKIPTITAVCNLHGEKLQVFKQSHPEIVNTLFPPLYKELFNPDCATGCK
Experiment: affinity purification with mass spectrometry; RIME: HA-RORβ transfected in TC28a2 chondrocytes, 1% formaldehyde crosslinking in cells, nuclear lysate, anti-HA magnetic beads, HA-peptide-blocked control; also with SIRT1 activator SRT2104 against DMSO
Details: partners not purified

log2 fold change of PIAS1 in RORβ immunoprecipitates, SRT2104 against DMSO: ~-0.4 log2 fold change (SRT2104/DMSO)
B1: PIAS1, endogenous in TC28a2 (enzyme, human (endogenous in TC28a2), UniProt O75925 1-651, looked up)
chain: MADSAELKQMVMSLRVSELQVLLGYAGRNKHGRKHELLTKALHLLKAGCSPAVQMKIKELYRRRFPQKIMTPADLSIPNVHSSPMPATLSPSTIPQLTYDGHPASSPLLPVSLLGPKHELELPHLTSALHPVHPDIKLQKLPFYDLLDELIKPTSLASDNSQRFRETCFAFALTPQQVQQISSSMDISGTKCDFTVQVQLRFCLSETSCPQEDHFPPNLCVKVNTKPCSLPGYLPPTKNGVEPKRPSRPINITSLVRLSTTVPNTIVVSWTAEIGRNYSMAVYLVKQLSSTVLLQRLRAKGIRNPDHSRALIKEKLTADPDSEIATTSLRVSLLCPLGKMRLTIPCRALTCSHLQCFDATLYIQMNEKKPTWVCPVCDKKAPYEHLIIDGLFMEILKYCTDCDEIQFKEDGTWAPMRSKKEVQEVSASYNGVDGCLSSTLEHQVASHHQSSNKNKKVEVIDLTIDSSSDEEEEEPSAKRTCPSLSPTSPLNNKGILSLPHQASPVSRTPSLPAVDTSYINTSLIQDYRHPFHMTPMPYDLQGLDFFPFLSGDNQHYNTSLLAAAAAAVSDDQDLLHSSRFFPYTSSQMFLDQLSAGGSTSLPTTNGSSSGSNSSLVSSNSLRESHSHTVTNRSSTDTASIFGIIPDIISLD
notes: E3 SUMO-protein ligase PIAS1, endogenous in TC28a2 human chondrocytes; source: endogenous, TC28a2 nuclear lysate
